From patent publication US20160185837A1 (Medimmune Limited, priority 2013, published 2016)
Where two headings read alike, the source gives them in different places.

Assays:
Assay type in all cases: cell-based
[1] = biological target: T1, human GIP receptor (hGIPr) (Homo sapiens, UniProt P48546); experiment: BSA-cAMP assay, cells expressing human GIP receptor; details: BSA-cAMP assay, read-out: hGIPr cAMP activity EC50
T1 construct: expressed in transfected cells
T1 sequence (P48546 22-466): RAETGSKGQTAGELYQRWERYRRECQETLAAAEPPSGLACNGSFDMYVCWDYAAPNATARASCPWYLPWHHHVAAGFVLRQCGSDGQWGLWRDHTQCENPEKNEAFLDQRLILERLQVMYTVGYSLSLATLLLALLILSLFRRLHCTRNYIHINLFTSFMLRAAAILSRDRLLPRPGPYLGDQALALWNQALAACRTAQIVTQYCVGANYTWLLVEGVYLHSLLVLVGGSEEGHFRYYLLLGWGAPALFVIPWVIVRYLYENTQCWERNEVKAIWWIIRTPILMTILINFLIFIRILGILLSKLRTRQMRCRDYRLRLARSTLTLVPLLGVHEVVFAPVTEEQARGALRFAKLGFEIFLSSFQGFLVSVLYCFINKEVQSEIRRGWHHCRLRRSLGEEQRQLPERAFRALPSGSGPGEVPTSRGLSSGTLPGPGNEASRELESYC
Outline: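 EC50 came from an unconstrained 4-parameter logistic fit of HTRF cAMP data expressed as percent of maximal native agonist activation, tested on two occasions. Thawed receptor-expressing cells (hGLP-1r, hGIPr at 0.5×10^5 cells/ml) treated 30 min at room temperature in 0.1% BSA-containing medium; two distinct hGIPr lines.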

[2] = biological target: T2, rat GLP-1 receptor (rGLP-1r) (Rattus norvegicus, UniProt P32301); experiment: BSA-cAMP assay, cells expressing rat GLP-1 receptor; details: BSA-cAMP assay, read-out: rGLP1r cAMP activity EC50
T2 construct: expressed in transfected cells; host or cells: HEK293s or CHO cells
T2 sequence (P32301 22-463): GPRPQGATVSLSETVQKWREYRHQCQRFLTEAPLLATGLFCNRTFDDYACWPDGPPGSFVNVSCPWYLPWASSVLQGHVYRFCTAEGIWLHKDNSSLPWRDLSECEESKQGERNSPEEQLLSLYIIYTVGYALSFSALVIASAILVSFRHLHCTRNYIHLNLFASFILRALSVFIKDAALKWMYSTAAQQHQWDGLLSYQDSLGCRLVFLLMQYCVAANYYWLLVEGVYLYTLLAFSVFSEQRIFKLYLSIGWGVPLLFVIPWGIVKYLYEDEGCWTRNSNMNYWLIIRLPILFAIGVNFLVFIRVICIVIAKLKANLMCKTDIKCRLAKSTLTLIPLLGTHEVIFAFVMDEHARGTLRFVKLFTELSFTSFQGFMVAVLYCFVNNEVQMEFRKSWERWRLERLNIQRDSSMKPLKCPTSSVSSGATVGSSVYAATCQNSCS
Outline: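 EC50 is the midpoint of an unconstrained 4-parameter logistic fit to HTRF cAMP data, expressed as percent of maximal native agonist response, from two separate occasions. Rodent (mouse, rat) GLP-1R- or GIPR-expressing cells were incubated with compound 30 min at room temperature in 0.1% BSA medium, in duplicate.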

hGIPr (C3) = biological target: T3, hGIPr (C3) (Homo sapiens, UniProt P48546); experiment: BSA-cAMP assay, second human GIPr cell line hGIPr (C3); details: Batch 1, second hGIPr cell line, read-out: hGIPr (C3) cAMP activity EC50
T3 construct: expressed in transfected cells
T3 sequence (P48546 22-466): T1 sequence (P48546 22-466)
Experimental: For human GIPr, two different lines were used, shown as “hGIPr” and “hGIPr (C3)” in Table 11. Peptide activation of these various receptors results in downstream production of cAMP second messenger that can be measured in a functional activity assay.
One basic cAMP assays was performed, differing in the medium used for the assay, the “BSA-cAMP assay”:
BSA-based assay medium: 0.1% bovine serum albumin (BSA) in
Hanks Balanced Salt Solution (GIBCO or Sigma), containing 0.5 mM IBMX (Sigma #17018);
In certain aspects, the assay can also be carried out in medium supplemented with serum albumin that corresponds to the receptor being tested, e.g., human serum albumin for testing cAMP activity at hGIPr or hGLP-1r, rat serum albumin for testing cAMP activity at rGIPr or rGLP-1r, and so on. […]
cAMP levels were measured using a commercially available cAMP dynamic 2 HTRF kit (Cisbio, Cat #62AM4PEJ), following the two step protocol as per manufacturer's recommendations. […] Plates were incubated at room temperature for one hour and then read on an Envision (Perkin Elmer) using excitation wavelength of 320 nm and emission wavelengths of 620 nm & 665 nm. Data was transformed to % Delta F as described in manufacturer's guidelines and then transformed to percent activation of maximal native agonist response and analysed by 4-parameter logistic fit to determine EC50 values. […]

## IP396 (YSEGTFTSDYSKLLERQAIDEFIAWLLKGGGGGGGSGGGGSGGGGSGGGGSACPPC)
[1]; Batch 1
  EC50: 0.0093 nM
[2]; Batch 1
  EC50: 0.057 nM
[2]; Batch 2
  EC50: 0.01 nM

## IP412: Fc fusion, IgG1-TM, SEQ ID NO:387; agonist peptide YSEGTFTSDYSKLLEEEANRLFIEWLLAGG (YSEGTFTSDYSKLLEEEANRLFIEWLLAGGGGGGSGGGGSGGGGSGGGGSATHTCPPC)
hGIPr (C3)
  EC50: 1.3 nM

## IP320 (YSEGTFTSDYAAAAEAAAAAAFAAWLAAAAGGGGGSGGGGSGGGGSGGGGSACPPC)
[1]; Batch 1
  EC50: 9.6 nM
[1]; Batch 2
  EC50: 44 nM
[2]; Batch 1
  EC50: 130 nM
